According to patent publication US8017124B2, “Use of DMBT1 for capturing sulphate and phosphate group exposing agents” (priority 2004, dated 2011):

Assays:
HIV-gp120 = HIV-gp120 (Human immunodeficiency virus type 1 group M subtype B, UniProt P04578); conditions: S. gordonii binding to immobilized SRCRP2 in absence and presence of HIV-gp120
Excerpt: Left panel: peptide SRCRP2 (containing DMBT1pbs1) was immobilized on ELISA plates and bacterial binding (S. gordonii) was quantified in the absence and presence of different concentrations of HIV-gp120.

[1] = tested on: Gram-positive S. mutans and Gram-negative E. coli bacteria; experiment: Peptide bacterial binding and aggregation studies; conditions: synthetic peptides
Procedure: For quantitative measurements of bacterial aggregation, we added 200 μl peptide stock solution (1 mg/ml in 10% DMSO) diluted with 300 μl TBS containing 0.1% v/v Tween 20 and 1 mM CaCl2 (TBS-TC) to 500 μl of the respective bacterial suspensions to obtain final peptide concentrations of […]. As controls, we used bacterial suspensions, to which 200 μl 10% (v/v %) DMSO in H2O and 300 μl TBS-TC were added. Bacterial aggregation was monitored by measuring the optical density at 700 nm in intervals of 1 min for 1 h in a spectrophotometer (UVICON 930, Kontron Instruments). For the semi-quantitative high-throughput competition assays, we first determined the allowed pH range for DMBT1pbs1-mediated aggregation of S. gordonii and E. coli by using TBS-TC adjusted with either HCl or NaOH. […] For monitoring competitive effects, we preincubated 20 μl of the DMBT1pbs1 stock solution (20 μg) with 20 μl of the respective substance solutions in 48-well microtiter plates at room temperature (RT) for 2 min. As reference served 20 μl 10% (v/v) DMSO solution in H2O mixed with 20 μl of the solvents of the respective substances. Afterwards, 100 μl of S. gordonii or E. coli (resuspended in TBS-TC or TBS-T, respectively, for the calcium-free assays) solution was added simultaneously to each well using a multichannel pipette. […]

Q: Which results are given for GRVEVLYRGSW [DMBT1pbs1]?
A: HIV-gp120 binding activity (HIV-gp120): exerts HIV-gp120 binding activity; bacterial binding and aggregation activity (Gram-positive and -negative bacteria) [1]: sufficient and necessary for interaction with Gram-positive and -negative bacteria
